The results in this text go back to publication PMC11582362.

The chains are these.
B1: full length ADAR1 p110, wild type (FLAG-tagged and HA-tagged copies) [human] / full length ADAR1 p110, wild type (FLAG-tagged and HA-tagged copies) [human] (parent)
chain 1: MAEIKEKICDYLFNVSDSSALNLAKNIGLTKARDINAVLIDMERQGDVYRQGTTPPIWHLTDKKRERMQIKRNTNSVPETAPAAIPETKRNAEFLTCNIPTSNASNNMVTTEKVENGQEPVIKLENRQEARPEPARLKPPVHYNGPSKAGYVDFENGQWATDDIPDDLNSIRAAPGEFRAIMEMPSFYSHGLPRCSPYKKLTECQLKNPISGLLEYAQFASQTCEFNMIEQSGPPHEPRFKFQVVINGREFPPAEAGSKKVAKQDAAMKAMTILLEEAKAKDSGKSEESSHYSTEKESEKTAESQTPTPSATSFFSGKSPVTTLLECMHKLGNSCEFRLLSKEGPAHEPKFQYCVAVGAQTFPSVSAPSKKVAKQMAAEEAMKALHGEATNSMASDNQPEGMISESLDNLESMMPNKVRKIGELVRYLNTNPVGGLLEYARSHGFAAEFKLVDQSGPPHEPKFVYQAKVGGRWFPAVCAHSKKQGKQEAADAALRVLIGENEKAERMGFTEVTPVTGASLRRTMLLLSRSPEAQPKTLPLTGSTFHDQIAMLSHRCFNTLTNSFQPSLLGRKILAAIIMKKDSEDMGVVVSLGTGNRCVKGDSLSLKGETVNDCHAEIISRRGFIRFLYSELMKYNSQTAKDSIFEPAKGGEKLQIKKTVSFHLYISTAPCGDGALFDKSCSDRAMESTESRHYPVFENPKQGKLRTKVENGEGTIPVESSDIVPTWDGIRLGERLRTMSCSDKILRWNVLGLQGALLTHFLQPIYLKSVTLGYLFSQGHLTRAICCRVTRDGSAFEDGLRHPFIVNHPKVGRVSIYDSKRQSGKTKETSVNWCLADGYDLEILDGTRGTVDGPRNELSRVSKKNIFLLFKKLCSFRYRRDLLRLSYGEAKKAARDYETAKNYFKKGLKDMGYGNWISKPQEEKNFYLCPV
chain 2: B1 chain 1

In the assay the parent is B1. The assay can be described thus: co-immunoprecipitation (anti-FLAG IP, anti-HA western blot, bands quantified with ImageJ). The note with it: HEK293T cells, in the presence of RNases, n = 3, parent: 70, read off a plot.
With chain 1 V452A D453Q W473V C478S, the response came to 11%.
